# Reference: US6887844 (dated 2005)
# How the values were obtained:
# [1] = biological target: NCAM on cells (primary hippocampal neurones; NCAM-140 on transfected fibroblasts) (rat) (UniProt P13596); test: cell-based or functional assay
# [2] = biological target: NCAM Ig2 domain, recombinant, produced in Pichia pastoris (rat) (UniProt P13596); test: NMR titration, 14 points, 15N-labelled domain-2 (1.0 mM) titrated with unlabelled domain-1, chemical shifts of 10 residues fitted
# [3] = biological target: the molecule itself; test: gel filtration chromatography, self-association
Molecule,binding result [3],other results
"NCAM Ig2 domain, recombinant, produced in Pichia pastoris (from UniProt P13596 117-208) (ligand)",,"concentration of maximal neuritogenic effect, primary hippocampal neurones on fibronectin [1]: 0.54 µM"
"NCAM Ig1 domain, recombinant, produced in Pichia pastoris (Ig1 PP) (from UniProt P13596 20-116) (receptor)",,Kd [2]: 2500 µM
"NCAM (20-208) with three mutations in the domain-1 E30A, E35A, K37A (receptor, UniProt P13596 20-208, looked up, Species as for m28; also called first mutant) LQVDIVPSQGAISVGASAFFLCQVAGDAKDKDISWFSPNGEKLSPNQQRISVVWNDDDSSTLTIYNANIDDAGIYKCVVTAEDGTQSEATVNVKIFQKLMFKNAPTPQEFKEGEDAVIVCDVVSSLPPTIIWKHKGRDVILKKDVRFIVLSNNYLQIRGIKKTDEGTYRCEGRILARGEINFKDIQVIV",no binding,
"NCAM (20-208) with three mutations in the domain-1 E30A, E35A, K37A and three mutations in the domain-2 R192A, R196A, E198A (receptor, UniProt P13596 20-208, looked up, Species as for m28; also called third mutant) LQVDIVPSQGAISVGASAFFLCQVAGDAKDKDISWFSPNGEKLSPNQQRISVVWNDDDSSTLTIYNANIDDAGIYKCVVTAEDGTQSEATVNVKIFQKLMFKNAPTPQEFKEGEDAVIVCDVVSSLPPTIIWKHKGRDVILKKDVRFIVLSNNYLQIRGIKKTDEGTYRCEGAILAAGAINFKDIQVIV",no binding,
"NCAM (20-208) with three mutations in the domain-2 R192A, R196A, E198A (receptor, UniProt P13596 20-208, looked up, Species as for m28; also called second mutant; mutated double domain) LQVDIVPSQGEISVGESKFFLCQVAGDAKDKDISWFSPNGEKLSPNQQRISVVWNDDDSSTLTIYNANIDDAGIYKCVVTAEDGTQSEATVNVKIFQKLMFKNAPTPQEFKEGEDAVIVCDVVSSLPPTIIWKHKGRDVILKKDVRFIVLSNNYLQIRGIKKTDEGTYRCEGAILAAGAINFKDIQVIV",no binding,
